Data as given in patent publication US6551840B2, “Method of screening TGF-β-inhibiting substances” (Chugai Seiyaku Kabushiki Kaisha, priority 1997, dated 2003).

Tests used:
[1] = test system: human fibroblast-derived HT-1080; experiment: Fibronectin EIA in HT-1080 cells expressing TAK1-DN with or without TGF-β; format: cell-based; conditions: 1 ng/ml TGF-β, 24 hours; for increase of fibronectin in the culture supernatant by TGF-β addition: control HT/NEO about 6.1 fold; for increase of fibronectin in the extracellular matrix extract by TGF-β addition: control HT/NEO about 11.4 fold
Text: Then, pTAK1DN or pCOS1 that contains no inserted genes as a control vector was linearized by digesting with a restriction enzyme PvuI. These linearized vectors were introduced by electroporation into human fibroblast-derived HT-1080 (ATCC CCL 121), a mouse kidney mesangial cell line SV40MES13 (ATCC CRL 1927), and a mink pulmonary epithelial cell line Mv1Lu (ATCC CCL 64), and cells into which the gene was introduced were selected using G418 (manufactured by GIBCO-BRL).
The human fibroblast-derived HT-1080 cells (HT/DN2 and HT/DN14) into which pTAK1DN had been introduced and the control cells (HT/NEO) into which pCOS1 containing no inserted genes had been introduced were incubated in a low-serum medium (Medium 199 containing 0.2% FBS; manufactured by GIBCO BRL) with or without 1 ng/ml TGF-β (manufactured by King Jozo) for 24 hours. The amount of fibronectin in the culture supernatant or the extracellular matrix extract prepared using 1 M urea solution (1 M urea, 1 mM DTT, 10 mM Tris-HCl, pH 7.4, 10 mM EDTA, Protease inhibitor cocktail (CompleteTM, manufactured by Boehringer-Mannheim)) was determined by the EIA method.
Thus, 100 μl of the culture supernatant or the extracellular matrix extract prepared using 1 M urea solution was added to a 96-well microtiter plate (manufactured by Nunc), and the plate was incubated overnight at 4° C. After washing, it was blocked using a 1% BSA solution (50 mM Tris-HCl, pH 8.0, 1 mM MgCl2, 150 mM NaCl, 0.05% Tween 20, 0.02% sodium azide), and then 10000 fold-diluted rabbit anti-human fibronectin antibody (manufactured by CALBIOCHEM) was added to the above 1% BSA solution, and was further incubated at room temperature for 2 hours.
After washing, alkaline phosphatase-labeled goat anti-rabbit Ig antibody (manufactured by TAGO) was added, and was further incubated at room temperature for one hour. Then the substrate solution (p-nitrophenyl phosphate; manufactured by Sigma) was added and absorbance at […] was measured. As a standard, human fibronectin (manufactured by Cappel) was used.

[2] = test system: mouse kidney mesangial cell line SV40MES13; experiment: Type I and type IV collagen EIA in SV40MES13 cells expressing TAK1-DN with or without TGF-β; format: cell-based; conditions: 2.5 ng/ml TGF-β, 24 hours; for increase of type IV collagen in the culture supernatant by TGF-β addition: control MES/NEO about 2.0 fold; for increase of type I collagen in the culture supernatant by TGF-β addition: control MES/NEO about 3.6 fold
Procedure: The mouse mesangial cell line SV40MES13 (MES/DN3 and MES/DN6) into which pTAK1DN had been introduced and the control cells (MES/NEO) into which pCOS1 containing no inserted genes had been introduced were incubated in a low-serum medium (Medium 199 containing 0.2% FBS) with or without 2.5 ng/ml TGF-β for 24 hours. The amount of fibronectin in the culture supernatant or the extracellular matrix extract prepared using 1 M urea solution was determined by the EIA method as described in Example 7.
Furthermore, the amount of type I and type IV collagen in the culture supernatant was determined by the EIA method. Thus, 100 μl of the culture supernatant was added to a 96-well microtiter plate (manufactured by Nunc), and the plate was incubated overnight at 4° C. After washing, it was blocked using the above 1% BSA solution, and then 5000-fold diluted rabbit anti-mouse type I collagen antibody (manufactured by LSL) or rabbit anti-mouse type IV collagen antibody (manufactured by LSL) was added, and was further incubated at room temperature for 2 hours. After washing, alkaline phosphatase-labeled goat anti-rabbit Ig antibody (manufactured by TAGO) was added, and was further incubated at room temperature for one hour. Then the substrate solution (manufactured by Sigma) was added and absorbance at […] was measured. As a standard, mouse type I collagen (manufactured by Chemicon) or mouse type IV collagen (manufactured by Cosmobio) was used.

B1: TAK1-DN: polypeptide of Glu at position 77 to Gln at position 303 of TAK1 (SEQ ID NO: 4), the TAB1 binding site; dominant negative inhibitor (protein)
chain: ELRQLSRVNHPNIVKLYGACLNPVCLVMEYAEGGSLYNVLHGAEPLPYYTAAHAMSWCLQCSQGVAYLHSMQPKALIHRDLKPPNLLLVAGGTVLKICDFGTACDIQTHMTNNKGSAAWMAPEVFEGSNYSEKCDVFSWGIILWEVITRRKPFDEIGGPAFRIMWAVHNGTRPPLIKNLPKPIESLMTRCWSKDPSQRPSMEEIVKIMTHLMRYFPGADEPLQYPCQ
increase of fibronectin in the culture supernatant by TGF-β addition ([1]; HT/DN2 cells): about 2.6 fold
increase of fibronectin in the extracellular matrix extract by TGF-β addition ([1]; HT/DN2 cells): about 3.5 fold
increase of fibronectin in the culture supernatant by TGF-β addition ([1]; HT/DN14 cells): ~3.0 fold
increase of fibronectin in the extracellular matrix extract by TGF-β addition ([1]; HT/DN14 cells): ~3.6 fold
increase of type IV collagen in the culture supernatant by TGF-β addition ([2]; MED/DN3 cells): about 1.5 fold
increase of type I collagen in the culture supernatant by TGF-β addition ([2]; MED/DN3 cells): about 2.0 fold
increase of type IV collagen in the culture supernatant by TGF-β addition ([2]; MES/DN6 cells): ~1.4 fold
increase of type I collagen in the culture supernatant by TGF-β addition ([2]; MES/DN6 cells): about 2.0 fold
